Columns and labels:
[1] = molecular target: the molecule itself; experiment: small angle X-ray scattering (SAXS); 4–15 mg/ml, 25 mM Tris/HCl pH 7.5, 150 mM NaCl, 290 K; extrapolated to infinite dilution; mass by comparison with bovine serum albumin
[2] = molecular target: the molecule itself; experiment: crystal structure; My11–My13 at 10 mg/ml; 0.1 M MES pH 6, 0.22 M lithium sulfate, 13% PEG 8000; 3.5 Å; molecular replacement with the (My13)2 dimer module of 2R15

Protein	stoichiometry N [1]	binding result [2]
myomesin My9–My13 (residues 1141–1666) (domain or fragment, human, UniProt P52179 1141-1666, looked up, myomesin (MYOM1), human, Ig domains My9–My13, residues 1141–1666 of MYOM1_HUMAN; Vector pET151/D-TOPO with N-terminal His6 and TEV site; also called C-terminal myomesin filament; My9–My10–My11–My12–(My13)2–My12′–My11′–My10′–My9′; source: E. coli BL21 (DE3) CodonPlus-RP, purified (Ni-NTA, size exclusion chromatography)) TKEVVVNVDDDGVISLNFECDKMTPKSEFSWSKDYVSTEDSPRLEVESKGNKTKMTFKDLGMDDLGIYSCDVTDTDGIASSYLIDEEELKRLLALSHEHKFPTVPVKSELAVEILEKGQVRFWMQAEKLSGNAKVNYIFNEKEIFEGPKYKMHIDRNTGIIEMFMEKLQDEDEGTYTFQLQDGKATNHSTVVLVGDVFKKLQKEAEFQRQEWIRKQGPHFVEYLSWEVTGECNVLLKCKVANIKKETHIVWYKDEREISVDEKHDFKDGICTLLITEFSKKDAGIYEVILKDDRGKDKSRLKLVDEAFKELMMEVCKKIALSATDLKIQSTAEGIQLYSFVTYYVEDLKVNWSHNGSAIRYSDRVKTGVTGEQIWLQINEPTPNDKGKYVMELFDGKTGHQKTVDLSGQAYDEAYAEFQRLKQAAIAEKNRARVLGGLPDVVTIQEGKALNLTCNVWGDPPPEVSWLKNEKALASDDHCNLKFEAGRTAYFTINGVSTADSGKYGLVVKNKYGSETSDFTVSVFIP	2	
myomesin My11–My13 (residues 1352–1666) (domain or fragment, human, UniProt P52179 1352-1666, looked up, myomesin (MYOM1), human, Ig domains My11–My13, residues 1352–1666 of MYOM1_HUMAN; Vector pET151/D-TOPO with N-terminal His6 and TEV site; also called My11–My13 triplet; source: E. coli BL21 (DE3) CodonPlus-RP, purified (Ni-NTA, size exclusion chromatography)) WIRKQGPHFVEYLSWEVTGECNVLLKCKVANIKKETHIVWYKDEREISVDEKHDFKDGICTLLITEFSKKDAGIYEVILKDDRGKDKSRLKLVDEAFKELMMEVCKKIALSATDLKIQSTAEGIQLYSFVTYYVEDLKVNWSHNGSAIRYSDRVKTGVTGEQIWLQINEPTPNDKGKYVMELFDGKTGHQKTVDLSGQAYDEAYAEFQRLKQAAIAEKNRARVLGGLPDVVTIQEGKALNLTCNVWGDPPPEVSWLKNEKALASDDHCNLKFEAGRTAYFTINGVSTADSGKYGLVVKNKYGSETSDFTVSVFIP		binds

— article PMC3279516, “Superhelical Architecture of the Myosin Filament-Linking Protein Myomesin with Unusual Elastic Properties” (PLoS Biology, 2012)
